This is an account of results in patent US20230287120A1 (ALLOGENE THERAPEUTICS, published 2023).

By Kd is commonly meant the constant that tells how readily two partners part at equilibrium. Low readings indicate tighter binding, high ones weaker binding.

Assay [1] concerns the target T1, Flag tagged recombinant DLL3 (Adipogen) (Homo sapiens (Human), UniProt Q9NYJ7 27-492).
T1 construct: Bought reagent; also called Flag-DLL3
T1 sequence: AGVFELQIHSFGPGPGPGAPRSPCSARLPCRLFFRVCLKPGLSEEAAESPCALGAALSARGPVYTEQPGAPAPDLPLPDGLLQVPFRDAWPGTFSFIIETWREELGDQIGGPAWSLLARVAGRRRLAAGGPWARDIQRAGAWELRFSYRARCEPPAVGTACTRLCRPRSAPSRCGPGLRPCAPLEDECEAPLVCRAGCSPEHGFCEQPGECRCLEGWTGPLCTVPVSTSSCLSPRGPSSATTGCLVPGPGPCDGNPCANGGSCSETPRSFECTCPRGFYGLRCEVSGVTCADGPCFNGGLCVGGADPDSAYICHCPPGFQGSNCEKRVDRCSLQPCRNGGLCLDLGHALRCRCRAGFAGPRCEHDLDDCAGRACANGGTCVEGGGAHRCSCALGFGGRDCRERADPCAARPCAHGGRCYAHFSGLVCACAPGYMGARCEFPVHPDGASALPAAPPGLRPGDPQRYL
Briefly: flow cytometry, percent of T cells that recognise recombinant DLL3, Donor 772.
Procedure: (§1) To determine the percentage of T cells that were successfully transduced with DLL3 CAR, T cells were first incubated with 1 ug/ml Flag tagged recombinant DLL3 (Adipogen) in PBS+1% BSA for 20 minutes at 4 C.

The target of assay [2] is T1, Flag tagged recombinant DLL3 (Adipogen). Put plainly: flow cytometry, percent of T cells that recognise recombinant DLL3, Donor 503. (In general: Flow cytometry measures light scatter and fluorescence of single cells or particles in a stream.)
Procedure: as §1
The target in assay [3] is T2, human DLL3 extracellular domain (ECD) with C-terminal 8xHis tag and Avi tag (human, UniProt Q9NYJ7 27-492).
T2 construct: extracellular domain; Expressed in Expi293, purified by IMAC and SEC; also called huDLL3; not shown: Avi tag
T2 sequence: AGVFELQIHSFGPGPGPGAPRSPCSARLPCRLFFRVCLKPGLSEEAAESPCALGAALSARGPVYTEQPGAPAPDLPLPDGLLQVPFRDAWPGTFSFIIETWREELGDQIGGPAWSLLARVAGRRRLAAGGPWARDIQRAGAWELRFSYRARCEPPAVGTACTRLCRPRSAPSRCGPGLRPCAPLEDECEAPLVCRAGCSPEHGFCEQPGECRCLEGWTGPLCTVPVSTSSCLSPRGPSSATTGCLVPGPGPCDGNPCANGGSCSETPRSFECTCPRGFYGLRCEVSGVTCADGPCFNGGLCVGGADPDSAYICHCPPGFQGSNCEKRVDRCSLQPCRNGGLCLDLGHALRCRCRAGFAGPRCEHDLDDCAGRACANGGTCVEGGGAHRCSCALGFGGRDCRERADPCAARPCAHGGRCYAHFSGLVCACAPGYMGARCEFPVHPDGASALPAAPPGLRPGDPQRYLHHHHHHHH
Briefly: SPR (Biacore), 37 C; IgG captured on chip, human DLL3 ECD in solution; 1:1 Langmuir fit. (Surface plasmon resonance follows binding to a sensor surface in real time, without labels.)

Assay [4] concerns the target T1, Flag tagged recombinant DLL3 (Adipogen). Briefly: flow cytometry, primary T cells with the CAR, 1 ug/ml Flag tagged recombinant DLL3, PE anti-Flag.
Procedure: as §1

B1: 4C6 (other)
CAR: QVQLQESGPGLVKPSETLSLTCTVSGDSISSYYWSWIRQPPGKGLEWIGYMYYSGITNYNPSLKSRVNISLDTSKNQFSLKLGSVTAADTAVYYCARLSVAGFYFDYWGQGTLVTVSSGGGGSGGGGSGGGGSGGGGSEIVLTQSPGTLSLSPGERATLSCRASQSVTRSYLAWYQQKPGQAPRLLIYGASSRATDIPDRFSGSGSGTDFTLTINRLEPEDFAVYYCQQYGTSPLTFGGGTKVEIKTTTPAPRPPTPAPTIASQPLSLRPEACRPAAGGAVHTRGLDFACDIYIWAPLAGTCGVLLLSLVITKRGRKKLLYIFKQPFMRPVQTTQEEDGCSCRFPEEEEGGCELRVKFSRSADAPAYQQGQNQLYNELNLGRREEYDVLDKRRGRDPEMGGKPRRKNPQEGLYNELQKDKMAEAYSEIGMKGERRRGKGHDGLYQGLSTATKDTYDALHMQALPPR
notes: also called anti-DLL3 CAR with 4C6 scFv, on primary T cells
For the molecule B1, the Transduction efficiency is 25.2% in assay [1] and 56.9% in assay [2].

B2: anti-DLL3 antibody 7F9 (IgG) (antibody, V domains shown)
VH: EVQLVESGGGLVQPGGSLRLSCAASGFTFSSHDMHWVRQATGKGLEWVSAIGIAGDTYYSGSVKGRFTISRENAKNSLYLQMNSLRAGDTAVYYCARANWGEGAFDIWGQGTMVTVSS
VL: DIQMTQSPSSLSASVGDRVTITCRASQGISDYLAWYQQKPGKIPKLLIYAASTLQSGVPSRFSGSGSGTDFTLTISSLQPEDVATYYCQKYNSVPLTFGGGTKVEIK
notes: Full-length monoclonal antibody (IgG)
Molecule B2 returned a Kd in assay [3] of 12.7 nM.

B3: 11A3 (other)
CAR: QVQLQESGPGLVKPSETLSLTCTVSSDSISNYYWSWIRQPPGKGLEWISYIYYSGITNYNPSLKSRVTISVDTSKNQFSLKLSSVTAADTAVYYCARITVTGFYFDYWGQGTLVTVSSGGGGSGGGGSGGGGSGGGGSEIVLTQSPGTLSLSPGERATLSCRASQSISRSYLAWYQQKPGQAPRHLIYGASSRATGIPDRFSGSGSGTDFILTISRLEPEDFAVYYCQQYDTSPLTFGGGTKVEIKTTTPAPRPPTPAPTIASQPLSLRPEACRPAAGGAVHTRGLDFACDIYIWAPLAGTCGVLLLSLVITKRGRKKLLYIFKQPFMRPVQTTQEEDGCSCRFPEEEEGGCELRVKFSRSADAPAYQQGQNQLYNELNLGRREEYDVLDKRRGRDPEMGGKPRRKNPQEGLYNELQKDKMAEAYSEIGMKGERRRGKGHDGLYQGLSTATKDTYDALHMQALPPR
notes: also called anti-DLL3 CAR with 11A3 scFv, on primary T cells
Consider B3, for which, in assay [4], the “Rec-DLL3 gate, percent of live CD3+ cells” value (“Rec-DLL3 gate, percent” for short) amounted to 57.3%. Further, the Transduction efficiency in assay [1] stood at 20%; in assay [2], 42.1%.

B4: 9H12-K (other)
CAR: QVQLVQSGAEVKKPGASVKVSCKASGYTFTGYSIHWVRQAPGQGLEWMGWINPNSGGTFYAQKFQGRVTMTRDTSISTVYMELSRLRSDDTAVYYCARDGWGDYYYYGLDVWGQGTTVTVSLGGGGSGGGGSGGGGSGGGGSDIQMTQSPSSVSASVGDRVTITCRASQDISSWLAWYQQKPGKAPKLLIYTASSLQGGVPSRFSGSGSGTDFTLTISSLQPEDLATYSCQQANVFPYTFGQGTKLEIKTTTPAPRPPTPAPTIASQPLSLRPEACRPAAGGAVHTRGLDFACDIYIWAPLAGTCGVLLLSLVITKRGRKKLLYIFKQPFMRPVQTTQEEDGCSCRFPEEEEGGCELRVKFSRSADAPAYQQGQNQLYNELNLGRREEYDVLDKRRGRDPEMGGKPRRKNPQEGLYNELQKDKMAEAYSEIGMKGERRRGKGHDGLYQGLSTATKDTYDALHMQALPPR
notes: also called anti-DLL3 CAR with 9H12-K scFv, on primary T cells
B4: in assay [4], the “Rec-DLL3 gate, percent” value came out at 56.3%. Further, the values for the Transduction efficiency in assay [1] and in assay [2] were 35.6% and 41.4%, respectively.

B5: anti-DLL3 antibody 2D3 (IgG) (antibody, V domains shown)
VH: QVQLQESGPGLVKPSETLSLTCTVSDNSISNYYWSWIRQPPGKGLEWIAYIYYSGTTNYNPSLKSRVTISLDTSKNQFSLKLSSVTAADTAVYYCARLFNWGFAFDIWGQGTMVTVSS
VL: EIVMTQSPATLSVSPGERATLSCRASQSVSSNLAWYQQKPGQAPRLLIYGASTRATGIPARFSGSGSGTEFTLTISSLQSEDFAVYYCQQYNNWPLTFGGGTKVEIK
notes: as for B2
Take B5: in assay [3], the Kd is 5.47 nM.

B6: anti-DLL3 antibody 9D3 (IgG) (antibody, V domains shown)
VH: QVQLQESGPGLVKPSETLSLTCTVSDDSISNYYWSWIRQPPGKGLEWIGYIFYSGTTNHNPSLKSRLTISLDKAKNQFSLRLSSVTAADTAVYYCARVFNWGFAFDIWGQGTMVTVSS
VL: EIVLTQSPGTLSLSPGERATLSCRASQRISRTYLAWYQQKPGQAPRLLIYGASSRATGIPDRFTGSGSGTDFTLTISRLEPEDFAVYYCQQYGTSPLTFGGGTKVEIN
notes: as for B2
The molecule B6 registered a dissociation constant (Kd) in assay [3] of 21.1 nM.

B7: anti-DLL3 antibody 8E11 (IgG) (antibody, V domains shown)
VH: QVQLQESGPGLVKPSETLSLTCTVSGDSISNYYWTWIRQPPGKGLEWIGYIYYSGTTNSNPSLKSRVTVSLDTSKSQFSLNLSSVTAADTAVYYCARVFNRGFAFDIWGQGTMVTVSS
VL: EIVLTQSPGTLSLSPGERATLSCRASQRISNTYLAWYQQKPGQAPRLLIYGASSRATGIPDRFSGSGSGTDFTLTISRLEPEDFAAYYCQQYDTSPLTFGGGTKVEIK
notes: as for B2
As for B7, binding in assay [3] was put at a Kd of 5.86 nM.

B8: 10G1-K (other)
CAR: EVQLLESGGGLVQPGGSLRLSCAASGFTFSSYAMNWVRQAPGKGLEWVSTISGSGGSTYYADSVKGRFTISRDNSKNTLYLQMNSLRAEDTAVFYCAIDPEYYDILTGGDYWGQGTLVTVSSGGGGSGGGGSGGGGGSGGGGSDIQMTQSPSAMSASVGDRVTITCRASQGISNYLAWFQQKPGKVPKRLIYAASSLQSGVPSRFSGSGSGTEFTLTISSLQPEDFATYFCLQHDSFPLTFGGGTKVEIKTTTPAPRPPTPAPTIASQPLSLRPEACRPAAGGAVHTRGLDFACDIYIWAPLAGTCGVLLLSLVITKRGRKKLLYIFKQPFMRPVQTTQEEDGCSCRFPEEEEGGCELRVKFSRSADAPAYQQGQNQLYNELNLGRREEYDVLDKRRGRDPEMGGKPRRKNPQEGLYNELQKDKMAEAYSEIGMKGERRRGKGHDGLYQGLSTATKDTYDALHMQALPPR
notes: also called anti-DLL3 CAR with 10G1-K scFv, on primary T cells
B8: in assay [4], the “Rec-DLL3 gate, percent” value came out at 51.8%. Further, the Transduction efficiency in assay [1] stood at 33.7%; in assay [2] it was 53.7%.

B9: anti-DLL3 antibody 2G1 (IgG) (antibody, V domains shown)
VH: QLQLQESGPGLVKPSETLSLTCTVSGGSISSSSYYWGWIRQPPGKGLEWIGSIYYSGNIYHNPSLKSRVSISVDTSKNQFSLRLSSVTAADTAVYYCAREIIVGATHFDYWGQGTLVTVSS
VL: AIQMTQSPSSLSASVGDRVTITCRASQGIRNDLGWYQQKPGKAPELLIYAASSLQSGVPSRFSGSGSGTDFTLTISSLQPEDFATYYCLQDYNYPLTFGPGTKVDIK
notes: as for B2
B9 gave a Kd in assay [3] of 38.1 nM.

B10: anti-DLL3 antibody 3F2 (IgG) (antibody, V domains shown)
VH: QVQLQESGPGLVKPSGTLSLTCAVSGGSISSNNWWSWVRQPPGKGLEWIGDIHHSGSTNYKPSLKSRVTISVDKSKNQFSLNLISVTAADTAVYYCAREAGGYFDYWGQGILVTVSS
VL: DIQMTQSPSTLSASVGDRVTITCRASQSISSWLAWYQQKPGKAPKLLISKASSLESGVPSRFSGSGSGPEFTLTISSLQPADFATYYCQQYNSYSTFGQGTKLEIK
notes: as for B2
In assay [3], B10 yielded a Kd of 14.8 nM.

B11: 4H8 (other)
CAR: QVQLQQSGPGLVKPSQTLSLTCAISGDSVSSNSATWNWIRQSPSRGLEWLGRTYYRSKWYDDYAVSVKSRITINPDTSKNHLSLHLNSVTPEDTAVYYCAGGGLVGAPDGFDVWGQGTMVTVSSGGGGSGGGGSGGGGSGGGGSQSVLTQPPSASGTPGQRVTISCSGSSSNIGSDPVNWYQQLPGTAPKLLIYSNNQRPSGVPDRFSGSKSGTSASLAISGLQSEDEADYYCSAWDDSLNGYVFGTGTKVTVLTTTPAPRPPTPAPTIASQPLSLRPEACRPAAGGAVHTRGLDFACDIYIWAPLAGTCGVLLLSLVITKRGRKKLLYIFKQPFMRPVQTTQEEDGCSCRFPEEEEGGCELRVKFSRSADAPAYQQGQNQLYNELNLGRREEYDVLDKRRGRDPEMGGKPRRKNPQEGLYNELQKDKMAEAYSEIGMKGERRRGKGHDGLYQGLSTATKDTYDALHMQALPPR
notes: also called anti-DLL3 CAR with 4H8 scFv, on primary T cells
For B11, in assay [4], the “Rec-DLL3 gate, percent” value came out at 77.9%. Further, the Transduction efficiency in assay [1] worked out at 27.2%; in assay [2], 39.3%.

B12: anti-DLL3 antibody 17A2 (IgG) (antibody, V domains shown)
VH: QVQLQESGPGLVKPSGTLSLTCVVFGDSISSSNWWSWVRQPPGKGLEWIGEVFHSGSTNYNPSLKSRVTISVDKSKNQFSLKLSSVTAADTAVYYCARAAVAGALDYWGQGTLVTVSS
VL: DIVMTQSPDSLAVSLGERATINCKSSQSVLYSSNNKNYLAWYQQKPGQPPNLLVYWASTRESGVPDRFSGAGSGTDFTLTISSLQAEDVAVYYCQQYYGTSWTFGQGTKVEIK
notes: as for B2
For B12, the Kd in assay [3] was 5.49 nM.

B13: anti-DLL3 antibody 6F8 (IgG) (antibody, V domains shown)
VH: QVQLVQSGAEVKKPGSSVKVSCKASGGTFTNYCISWVRQAPGQGLEWMGGIIPIFGTTNYAQTFQGRVTITADKSTSTAYMELSSLRSEDTAVYYCARDNGDRYYYDMDVWGQGTTVTVSS
VL: QSVLTQPPSVSAAPGQKVTISCSGSSSNIGNNYVSWYQQLPGTAPKLLIYDNNKRPSGIPDRFSGSKSGTSATLGITGLQTGDEADYYCGTWDSSLSAVVFGGGTKLTVL
As to B13, in assay [3], binding was put at a Kd of 26.5 nM.
